Like-named read-outs stand apart in the source and are kept apart here.

Usually Kd stands for the constant that tells how readily two partners part at equilibrium.

For assay [1], the target named is T1, bond between rTRX and rMIF (Homo sapiens, UniProt P10599).
T1 construct: His tag; made in house; host or cells: Escherichia coli
T1 sequence (P10599 1-105): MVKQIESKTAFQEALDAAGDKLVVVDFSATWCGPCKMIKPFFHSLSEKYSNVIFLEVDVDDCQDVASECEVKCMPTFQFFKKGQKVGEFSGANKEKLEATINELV
In words: Screening by molecular interaction analysis (Biacore, SPR) for substances that strengthen the bond between TRX and MIF, Example 7. In kind it is binding. Particulars: analyte: rTRX 5 μM mixed with test substance 500 μM (Prostaglandin I2 also 5 μM); compared with rTRX only (FIGS. 7 to 11). On the procedure:
For several test substances, it was confirmed with a molecular interaction analysis whether they strengthened the bond between TRX and MIF or not. rMIF was immobilized in a CM5 sensor chip as a ligand. The ligand was adjusted to have the rMIF concentration of less or equal to 200 nM by using running buffer, 10 mM HEPES (pH7.4), 150 mM NaCl, 3 mM EDTA and 0.005% Tween 20. […] In each analyte, the concentration of rTRX was 5 μM and the concentration of the test substance was 500 μM. For Prostaglandin I2, the analyte having its concentration of 5 μM was also analyzed.
Background: Surface plasmon resonance follows binding to a sensor surface in real time, without labels.

Assay [2] addresses T2, MIF (Homo sapiens, UniProt P14174).
T2 construct: endogenous in cells; host or cells: ATL2 cells (concentrated culture supernatant)
T2 sequence (P14174 1-115): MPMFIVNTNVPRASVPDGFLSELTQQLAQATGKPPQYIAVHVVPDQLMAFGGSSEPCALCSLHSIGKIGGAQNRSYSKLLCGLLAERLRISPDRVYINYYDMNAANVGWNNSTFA
The assay is described as follows: Immunoprecipitation / Western blotting of the bond between TRX and MIF outside ATL2 cells (culture supernatant). It is filed as binding. Particulars: anti MIF antibody immunoprecipitation, anti TRX Western blotting (FIG. 2). As for the experimental part: The bond between TRX and MIF outside ATL2 cells was confirmed with an immunoprecipitation method.
1×10^5/cell of the ATL2 cells were cultured with RPMI 1640 (SIGMA Inc.) medium containing 100 U/ml penicillin and 100 μg/ml streptomycin in a 175 cm^2 flask for 3 days. Then, the medium was collected and centrifugated at 10,000 rpm and 4° C. for 15 minutes. Then, FCS was added to the obtained supernatant to adjust the final concentration to 10%, and the solution was concentrated with Amicon ultra-4. The obtained concentrated-solution was used for the immunoprecipitation experiment. 20 μl Protein G Sepharose and 30 μl of the culture supernatant were added to a microtube, and phosphate buffer was used to adjust the amount to 1 ml. The obtained solution was reacted at 4° C. for 3 hours with a small rotary incubator. The cell solution was centrifugated at 15,000 rpm and 4° C. for 2 minutes. The obtained supernatant was added to a new microtube, and 20 μl Protein G Sepharose and 4 μg/ml of the anti MIF antibody were also added thereto.
(§1) For a control, anti Rabbit antibody was used instead of the anti MIF antibody.
The reaction was carried out with a small rotary incubator at 4° C. for overnight. The reaction solution was centrifugated at 15,000 rpm and 4° C. for 2 minutes. The precipitation was washed with washing buffer (50 mM Tris-HCl (pH7.5), 150 mM NaCl, 0.1% NP40). […]
For orientation: Immunoblotting shows a protein as a band on a membrane.

For assay [3], the target named is T2, MIF. In words: Immunoprecipitation / Western blotting of the bond between TRX and MIF in cells. In kind it is cell-based. Particulars: ATL2 cells and HL60 cells; anti MIF antibody immunoprecipitation, anti TRX Western blotting (FIG. 1). On the procedure:
The bonds between TRX and MIF in ATL2 cells and HL60 cells were confirmed with an immunoprecipitation method (to be described in detail below).
The cells were cultured with RPMI 1640 (SIGMA Inc.) medium containing 10% FCS, 100 U/ml penicillin and 100 μg/ml streptomycin in a 175 cm^2 flask.
1×10^7˜8/cell of the cells were collected and centrifugated at 1,000 rpm and 4° C. for 15 minutes. The obtained precipitation was dissolved with lysis buffer and left on the ice for 30 minutes.
The solution was centrifugated at 1,000 rpm and 4° C. for 15 minutes. The obtained supernatant was used for the immunoprecipitation experiment. The concentration of the protein was measured with DC protein assay kit (BIO RAD Inc.).
20 μl Protein G Sepharose and 500 μg of the cell solution were added to a microtube, and phosphate buffer was used to adjust the amount to 1 ml. The obtained solution was reacted at 4° C. for 3 hours with a small rotary incubator. The cell solution was centrifugated at 15,000 rpm and 4° C. for 2 minutes. The obtained supernatant was added to a new microtube, and 20 μl Protein G Sepharose and 4 μg/ml anti MIF antibody were also added thereto.
as §1
The reaction was carried out with a small rotary incubator at 4° C. for overnight. The reaction solution was centrifugated at 15,000 rpm and 4° C. for 2 minutes. […]

Assay [4] deals with RAW 264.7 cells. In words: Inhibition of MIF activity measured as TNF-alpha production in RAW 264.7 cells (ELISA). It is filed as cell-based, mouse. Particulars: MIF 10 ng/ml, 0 to 500 ng/ml TRX, LPS 100 ng/ml (FIG. 4). As for the experimental part:
TRX's inhibition of MIF activity was confirmed by measuring a concentration of inflammatory cytokine TNF-α (to be described in detail below).
RAW 264.7 cells were cultured with RPMI 1640 medium containing 10% FCS, 100 U/ml penicillin and 100 μg/ml streptomycin in a 75 cm^2 flask.
RAW 264.7 cells were added to a 24 well plate (1×10^6/cell). MIF having a final concentration of 10 ng/ml and 0 to 500 ng/ml TRX were also added thereto, and left under the condition of 5% CO2 at 37° C. for 4 hours.
Further, 100 ng/ml of LPS was added to the plate (described as LPS (+)), and the plate was left under the condition of 5% CO2 at 37° C. for 4 hours. Then, the medium was collected.
Amount of the generated TNF-alpha (α) was measured with Duo Set ELISA Development system mouse TNF-α kit.
The measuring method was based on the protocol attached to the kit.
(An ELISA detects its analyte on a solid surface through an enzyme-linked reagent.)

Assay [5] deals with T3, rMIF (Homo sapiens, UniProt P14174).
T3 construct: His tag; made in house; host or cells: Escherichia coli
T3 sequence (P14174 1-115): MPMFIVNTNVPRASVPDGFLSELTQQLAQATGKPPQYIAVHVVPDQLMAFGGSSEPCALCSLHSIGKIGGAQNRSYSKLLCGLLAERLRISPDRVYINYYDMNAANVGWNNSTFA
In words: Molecular interaction analysis (Biacore, SPR) of the bond between rTRX and rMIF, Example 5. It is filed as binding. Particulars: rMIF immobilized on CM5 sensor chip; rTRX 2 to 12 μM (FIG. 5). As for the experimental part: The bond between TRX and MIF was confirmed with a molecular interaction analysis (Biacore) (hereinafter, referred to as “molecular interaction analysis”) utilizing surface plasmon resonance (SPR) phenomenon.
rMIF was immobilized in a CM5 sensor chip as a ligand. The ligand was adjusted to include MIF less or equal to 200 nM by using running buffer, 10 mM HEPES (pH7.4), 150 mM NaCl, 3 mM EDTA and 0.005% Tween 20.
Then, rTRX was used as an analyte to analyze the interaction between rTRX and rMIF. The concentration of rTRX was changed to 2 μM, 4 μM, 6 μM, 8 μM, 10 μM and 12 μM for the analysis.

The target in assay [6] is T3, rMIF. In words: Molecular interaction analysis (Biacore, SPR) of rTRX variants and rMIF in oxidation and reduction states, Example 6. In kind it is binding. Particulars: for change of the dissociation constant value between oxidation state and reduction state: oxidation state versus reduction state; for Kd: rMIF immobilized on CM5 sensor chip, read-out: KD (dissociation constant value). As for the experimental part:
It was confirmed with a molecular interaction analysis whether the cysteine residues at 32 and 35 positions (the active site of TRX) affect the bond between TRX and MIF or not.
rMIF was immobilized in a CM5 sensor chip as a ligand, wherein the concentration of rMIF was adjusted to less than or equal to 200 nM.
Then, rWT TRX, rDM TRX and rC35S TRX were used as analytes to analyze the interaction between these rTRX and rMIF in both oxidation and reduction states, respectively.
In the oxidation state, running buffer, 10 mM HEPES (pH7.4), 150 mM NaCl, 3 mM EDTA and 0.005% Tween 20 were used to adjust the ligand. In the reduction state, 1M DTT was used in addition to the running buffer, 10 mM HEPES (pH7.4), 150 mM NaCl, 3 mM EDTA and 0.005% Tween 20 to adjust the ligand.
Tables 1 and 2 show the dissociation constant value (KD value) calculated from FIG. 6.

For assay [7], the system named is ATL2 cells. In words: Inhibition of the cell internalization of MIF into ATL2 cells (Western blotting, densitometer). Particulars: rTRX 0 to 250 μg/ml, 25 μg/ml rMIF, 24 hours (FIG. 3). In kind it is cell-based, human. As for the experimental part:
MIF is internalized (incorporated) into cells by the autocrine or paracrine action to induce the production of inflammatory cytokine TNF-alpha(α) or IL-1. Thus, the effects of TRX on the cell internalization of MIF were examined to clarify the inflammation response control mechanism.
ATL2 cells were cultured with RPMI 1640 medium containing 10% FCS, 100 U/ml penicillin and 100 μg/ml streptomycin in a 75 cm^2 flask.
1×10^6/cell of ATL2 cells were added to a 24 well plate. rTRX having the final concentration of 0 to 250 μg/ml and 25 μg/ml rMIF were also added thereto, and cultured under the condition of […] at 37° C. for 24 hours.
After cells were collected, the precipitation was mixed with SDS-PAGE sample buffer, and then electrophoresed on a 15% SDS-PAGE gel. After the electrocataphoresis, a Western blotting was performed to detect MIF internalized in the cells with anti His-tagged antibody. The change of the band by the Western blotting was analyzed with a densitometer.

The mark [8] stands for this setting: reduction state (DTT added to running buffer).

In the case of `N[C@@H](CCC(=O)N[C@@H](CSN=O)C(=O)NCC(=O)O)C(=O)O` [Nitrosoglutathione], in assay [1], the “effect of the test substance on the bond between rTRX and rMIF” value is “remarkably strengthen the bond between rTRX and rMIF”.
The same measure, in the same setting: for `CCCCC[C@H](O)/C=C/[C@@H]1[C@H]2C/C(=C/CCCC(=O)O)O[C@H]2C[C@H]1O` [Prostaglandin I2] the value was “remarkably strengthen the bond between rTRX and rMIF”.

B1: rTRX: Recombinant thioredoxin; His-tagged, expressed in Escherichia coli (Examples 5-7); from Ajinomoto in Examples 3-4 (protein)
chain: MVKQIESKTAFQEALDAAGDKLVVVDFSATWCGPCKMIKPFFHSLSEKYSNVIFLEVDVDDCQDVASECEVKCMPTFQFFKKGQKVGEFSGANKEKLEATINELV
modifications: left off: small tags and cut ends
As for B1, the “bond between TRX and MIF outside cells” value in assay [2] is listed as “bonds directly with MIF”. Further, in assay [3], the “bond between TRX and MIF in cells” value is “bonds directly with MIF”. Moreover, in assay [4], the “inhibition of rMIF activity” value is given as “inhibits the activity of rMIF depending on the concentration of rTRX” and the “production of MIF-derived TNF-alpha” value was “inhibits the production of MIF-derived TNF-alpha”. The “bond between rTRX and rMIF (surface plasmon resonance)” value in assay [5] was “concentration-dependent”. In addition, in assay [6] (FIG. 6, Tables 1 and 2), the “direct bond with rMIF” value is “bonded directly with rMIF”. Besides, in assay [6], the “change of the dissociation constant value between oxidation state and reduction state” value is on record as “almost no changes in the dissociation constant values”. Besides, the Kd in assay [6] (oxidation state) was determined as 25.3 µM. The Kd in assay [6] (setting [8]) came out at 29.7 µM. The “internalization of MIF into cells” value in assay [7] is listed as “inhibits the internalization of MIF into the ATL2 cells”.

B2: rC35S TRX: the rTRX of Example 5 in which the cysteine residue at 35 position was converted to serine (protein)
chain: MVKQIESKTAFQEALDAAGDKLVVVDFSATWCGPSKMIKPFFHSLSEKYSNVIFLEVDVDDCQDVASECEVKCMPTFQFFKKGQKVGEFSGANKEKLEATINELV
modifications: left off: small tags and cut ends
On to B2, for which, in assay [6] (FIG. 6, Tables 1 and 2), the “direct bond with rMIF” value was “bonded directly with rMIF”; the “strength of the bond with rMIF compared with the other rTRX” value was “stronger than the bond between rWT TRX or rDM TRX and MIF”. The “change of the dissociation constant value between oxidation state and reduction state” value in assay [6] is given as “strong bond with rMIF in the oxidation state”. Further, the dissociation constant Kd in assay [6] (oxidation state) was found to be 3.95 µM.

B3: rDM TRX: the rTRX of Example 5 in which the cysteine residues at 32 and 35 positions were converted to serine (protein)
chain: MVKQIESKTAFQEALDAAGDKLVVVDFSATWSGPSKMIKPFFHSLSEKYSNVIFLEVDVDDCQDVASECEVKCMPTFQFFKKGQKVGEFSGANKEKLEATINELV
modifications: left off: small tags and cut ends
B3: the “direct bond with rMIF” value in assay [6] (FIG. 6, Tables 1 and 2) is given as “bonded directly with rMIF”. The “change of the dissociation constant value between oxidation state and reduction state” value in assay [6] is “almost no changes in the dissociation constant values”. Also, the Kd was 11.9 µM in assay [6] (oxidation state) and 16.6 µM in assay [6] (setting [8]).

The record behind these values is patent US8440413B2, “Method of screening for a substance that strengthens a bond between thioredoxin and macrophage migration inhibition factor” (Redox Bioscience, Inc., priority 2006, dated 2013).
